According to doi:10.1101/2024.03.31.587457, “The TTLL10 polyglycylase is stimulated by tubulin glutamylation and inhibited by polyglycylation” (bioRxiv, 2025):

T1: TTLL8 (Homo sapiens, UniProt A6PVC2)
T1 construct: residues 39-585; N-terminal GST tag cut with 3C protease; Sf9 baculovirus
T1 sequence (A6PVC2 39-585): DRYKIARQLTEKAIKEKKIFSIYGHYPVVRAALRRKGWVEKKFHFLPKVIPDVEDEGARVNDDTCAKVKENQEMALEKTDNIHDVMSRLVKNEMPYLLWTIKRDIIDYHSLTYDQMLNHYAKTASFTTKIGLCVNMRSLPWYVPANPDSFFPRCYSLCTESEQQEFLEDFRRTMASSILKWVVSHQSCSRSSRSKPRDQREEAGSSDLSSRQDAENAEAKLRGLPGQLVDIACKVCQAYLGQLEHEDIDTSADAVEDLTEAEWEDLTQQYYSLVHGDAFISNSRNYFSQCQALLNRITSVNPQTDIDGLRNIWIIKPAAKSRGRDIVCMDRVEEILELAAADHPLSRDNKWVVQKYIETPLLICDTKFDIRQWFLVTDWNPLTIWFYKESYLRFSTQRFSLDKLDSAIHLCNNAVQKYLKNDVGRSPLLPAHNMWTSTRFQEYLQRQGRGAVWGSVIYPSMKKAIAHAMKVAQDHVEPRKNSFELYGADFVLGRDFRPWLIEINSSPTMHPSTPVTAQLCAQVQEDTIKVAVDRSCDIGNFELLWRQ

T2: TTLL10 (Xenopus tropicalis, UniProt A0A8J0T4S7)
T2 construct: residues 105-570; N-terminal GST tag cut with 3C protease; Sf9 baculovirus; untagged for mass spectrometry (C-terminal SNAP fusion only for microscopy)
T2 sequence (A0A8J0T4S7 105-570): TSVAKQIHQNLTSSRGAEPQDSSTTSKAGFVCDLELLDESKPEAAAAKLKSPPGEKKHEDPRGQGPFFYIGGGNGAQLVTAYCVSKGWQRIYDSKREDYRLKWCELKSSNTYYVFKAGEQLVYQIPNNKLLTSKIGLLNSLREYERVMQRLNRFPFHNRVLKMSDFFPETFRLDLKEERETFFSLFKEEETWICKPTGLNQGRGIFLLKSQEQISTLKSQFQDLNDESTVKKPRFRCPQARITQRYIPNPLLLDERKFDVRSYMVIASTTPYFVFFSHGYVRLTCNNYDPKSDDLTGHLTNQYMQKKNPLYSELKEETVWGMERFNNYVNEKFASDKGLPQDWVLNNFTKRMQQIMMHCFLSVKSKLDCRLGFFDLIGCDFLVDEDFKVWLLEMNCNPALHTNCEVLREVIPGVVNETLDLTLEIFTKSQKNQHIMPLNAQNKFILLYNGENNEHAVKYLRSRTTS

B1: Alexa647-labeled TTLL10-SNAP (enzyme)
chain: T2 sequence (A0A8J0T4S7 105-570)
modifications: SNAP-Surface Alexa Fluor 647 dye conjugated to the SNAP tag

What was measured:
TTLL8 = biological target: T1, TTLL8; assay: LC-MS and MS/MS of glycine added to tubulin tails; type: biochemical; settings: labelled compound (13C glycine); co-substrate unmodified human microtubules (taxol-stabilised); ATP-dependent; room temperature, 20 min
TTLL10 = biological target: T2, TTLL10; assay: LC-MS and MS/MS of glycine added to tubulin tails; type: biochemical; settings: labelled compound (13C glycine); co-substrate human microtubules monoglycylated by TTLL8; ATP-dependent; room temperature, 20 min
[1] = biological target: polyglycylated/polyglutamylated microtubules (<nG>α ~ 0.4, <nG>β ~ 1.9, glutamylated by TTLL6) (human) (UniProt P68363); assay: TIRF microscopy microtubule binding assay; 500 nM TTLL10-SNAP(647) perfused over biotinylated taxol-stabilised microtubules immobilised on neutravidin; binding buffer 60mM KCl, 10mM NaCl, 40mM PIPES pH 6.8, 2mM Tris pH 8.0, 1.5mM MgCl2, 1mM ATP; peak line-scan intensities normalised to microtubule length and to unmodified microtubules in the same chamber
[2] = biological target: monoglycylated/polyglutamylated microtubules (<nG>α ~ 0.1, <nG>β ~ 0.8; <nE>α ~ 18, <nE>β ~ 4) (human) (UniProt P68363); assay: as above
[3] = biological target: monoglycylated microtubules (<nG>α ~ 1.1, <nG>β ~ 2.5) (human) (UniProt P68363); assay: as above
[4] = biological target: monoglycylated microtubules (<nG>α ~ 0.8, <nG>β ~ 1.2) (human) (UniProt P68363); assay: as above
[5] = biological target: monoglycylated microtubules (α + 1.7G, β + 2.0G) (human) (UniProt P68363); assay: TIRF microscopy microtubule binding assay; binding curve of TTLL10-SNAP(Alexa647) on microtubules immobilised in neutravidin-coated flow chambers; apparent Kd

Molecule	LC-MS and MS/MS of glycine added to tubulin tails (TTLL8)	LC-MS and MS/MS of glycine added to tubulin tails (TTLL10)	fold binding against the same polyglycylated microtubules without glutamylation [1] [fold]	fold recruitment against the same monoglycylated microtubules without glutamylation [2] [fold]	percent increase in recruitment on addition of more monoglycines (against microtubules with <nG>α ~ 0.8, <nG>β ~ 1.2) [3] [%]	fold recruitment against unmodified microtubules [4] [fold]	Kd [5] [nM]
NCC(=O)O [glycine]	TTLL8 adds glycines to unmodified microtubules on both α- and β-tubulin	TTLL10 can add glycines to both α- and β-tubulin as long as they were previously monoglycylated					
B1			3.2	1.8	17	> 6	600
